B1: Numb-related protein 1 (Caenorhabditis elegans), Q9XTY6 (parent)
chain: MSASQGNVFTRGLSRISRRKKKTKSIQNSLVSEQQPSFDAAIVPMPIPNDKSSIFSKGMDRLRRSLRLPKKRRDRSHDRHLSPDVTGGSKTEQWQPDEGAVRTGTCCFNVKYLGSVEVYESRGMQVCEGALKSLKASRRKPVKAVLYVSGDGLRVVDQGNSRGLLVDQTIEKVSFCAPDRQTDKGFAYICRDGASRRWMCHGFLATKETGERLSHAVGCAFSICLEKKKRRDEETAQVNVQSAQESTSSTPPKDIFHPNWEDNTSEGTSTQNPSNSRSNLAYQSFRKHVSIEDRYLDPQSVIINEVPASNHMDEIRRISKPRPTGNPALFLRQGSLRAPPDMPSSSDQFKRNMSLRTVSNNPTERSPEKKSFGTQLYNEPIYEGDEDPLGLGITPPVVTKTSGSLSNNGLDGINLNWKSIPAPVHQMQQHNANGDFVAAWPQNTIEKPTVGPLDKLQKQFEDIKLISISSGENTPTTRSKADEWLDDVLRVSMSMSPTSPSSDPPSTSSYSVLPKSGPPPAHAPPPLPVRQAVSNGSPSIYQQQLQQANSTRNSPAGINWNSSPNPMKISQPPAKPVDPFDVQWSRLAVNNTH
partner: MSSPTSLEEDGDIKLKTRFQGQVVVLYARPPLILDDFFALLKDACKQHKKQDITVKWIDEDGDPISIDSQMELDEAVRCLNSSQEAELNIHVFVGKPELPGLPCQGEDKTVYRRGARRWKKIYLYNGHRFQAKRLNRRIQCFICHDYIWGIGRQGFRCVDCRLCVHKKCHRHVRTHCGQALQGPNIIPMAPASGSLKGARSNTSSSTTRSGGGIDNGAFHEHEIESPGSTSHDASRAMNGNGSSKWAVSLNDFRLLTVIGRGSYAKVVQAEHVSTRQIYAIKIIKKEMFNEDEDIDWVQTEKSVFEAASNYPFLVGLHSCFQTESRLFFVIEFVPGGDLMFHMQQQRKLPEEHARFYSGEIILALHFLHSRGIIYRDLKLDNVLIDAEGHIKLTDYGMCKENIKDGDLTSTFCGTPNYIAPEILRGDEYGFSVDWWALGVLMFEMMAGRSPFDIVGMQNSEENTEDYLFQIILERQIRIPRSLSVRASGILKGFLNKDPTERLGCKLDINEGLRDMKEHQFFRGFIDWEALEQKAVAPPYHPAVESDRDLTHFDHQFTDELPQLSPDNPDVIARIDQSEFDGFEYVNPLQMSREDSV

Variants of: B1
Conditions: with kpc3_caeel pkc-3, Q19266

Row | Variant | effect of a mutation on the interaction
1 | F221L | decreasing interaction

Variants of: B1
Conditions: with kpc3_caeel pkc-3, Q19266
Remark: another data set of the same source

Row | Variant | effect of a mutation on the interaction
2 | F221L | decreasing interaction
3 | F175L | decreasing interaction

Source: IntAct's records for PubMed 11134024
